Experimental data as given in paper PMC3946051 (Molecular microbiology, 2014).

Key:
CrtJ (R. capsulatus) [1] = biological target: CrtJ (R. capsulatus) (UniProt P26167); assay: SEC
CrtJ (R. capsulatus) [2] = biological target: CrtJ (R. capsulatus) (UniProt P26167); assay: MST
SEC = biological target: the molecule itself; assay: SEC

| Molecule | stoichiometry N (CrtJ (R. capsulatus) [1]) | EC50 (CrtJ (R. capsulatus) [2]) [µM] | stoichiometry N (SEC) |
| --- | --- | --- | --- |
| AerR:B12 (natural protein) | 1 | 3.3 | – |
| CrtJ (natural protein, R. capsulatus, UniProt P26167 1-469, looked up) MTSDGSFLMRREALQRVSPDLLADIVTSACDIALVVSPGRVVESVMVNPQFGSAERFAAWQGARLSQLFSPESAQKLENRLADGPEPGRSLQLELTHAADAFTLPVRYTITRSGEDGTLLLIGRDMQPLAEVQQQLVKAQLALERDYEAQREIETRYRVLLEAHPAPLLIVSMSTGRIADLNLAAAAMIGATRAELIDAPVGQELDGRRRGEFLENLAKIAGSDPLGAVELTIRRSRRKVTVTATLFRAAGDRLLLCRLGEAEARRTRVDDTVELSERLFLKGIDAMVFLDADGTIRAANDAFLYLTDAGSAALVQGRSFADFLSRGAVDLNVLLDNVKRIGHLRHYVTRLNTDFSGQVTVELSATLFHDRATPTIALVIRDSNLADATRIMPGMASNEGLRNVMQMVGYATLRDIVSETTEIIEKMCIETALELTGNNRVAAAELLSLSRQSLYVKLRKFGLLSKDAE | – | – | 2 |
